How the values were obtained:
Experiment in all cases: purified protein
Type in all cases: biochemical, Psychrobacter sp. SC65A.3
purified protein [1] = substrate: CCCCCCCCCCCCCCCC(=O)Oc1ccc([N+](=O)[O-])cc1; settings: 25 °C, 50 mM Tris HCl pH 7.2
purified protein [2] = substrate: CCCCCCCCCCCCCCCCCC(=O)Oc1ccc([N+](=O)[O-])cc1; settings: 25 °C
purified protein [3] = substrate: CCCC(=O)Oc1ccc([N+](=O)[O-])cc1; settings: 25 °C, 50 mM Tris HCl pH 7.2, substrate in ethanol

B1: PSL2 (Psychrobacter sp. SC65A.3) (protein)
chain: MSNSTVLSVNTLLNKAVKTLNLMSFGQDKNPKSTDINLSDEIIDIEESALQDSREDKGLSIKEKILEHHLMTNYQPHLLHYAIKSFGCLPTPILESLIKCLDGPTSKQYLHVDAHLRLILAVNSKLKTPLQLIEMSELRKRFATDAVAMQAPKVWQQASDNLLSNLKQFHKKGDSAISWQDRTITNADDGDMTIRCYQNETSDNGFGFKKEQTSNPDETVLLFFHGGGFCIGDLNTHHEFCHAICEQTGWPVISVDYRLAPEHPAPAAVRDCISAYAWLAEHCEEFGALPSRIVLAGDSAGGGLSTLMAQQIITPNKEAWLDLGDEGQKTFDILQGLPHPMAQMPLYPVTDIETDYPSWELYGEGLLLDHADVAIFDAACLENSPLPRQHILTSPMLGDNRQVCPSYVVAAELDVLRDEAFAYANQLKSFGIAVQTHTVLGAPHGFIHFMSVHQRLGQETQHIITGFANFVREIIKTRALLSA
Km (purified protein [1]): 4.30 mM
kcat/Km (purified protein [1]): 5.75 M⁻¹ s⁻¹
Km (purified protein [2]; 50 mM Tris HCl pH 7.2): 3.70 mM
kcat/Km (purified protein [2]; 50 mM Tris HCl pH 7.2, text b41 swaps the kcat of butyrate and stearate, table value taken (fits kcat/Km)): 13.9 M⁻¹ s⁻¹
Km (purified protein [3]): 2.38 mM
kcat/Km (purified protein [3]; text b41 swaps the kcat of butyrate and stearate, table value taken (fits kcat/Km)): 25 M⁻¹ s⁻¹
